Data: patent US20180280504A1, “GLYCAN-INTERACTING COMPOUNDS AND METHODS OF USE” (SIAMAB THERAPEUTICS, INC., priority 2014, published 2018)

Key:
Assay type in all cases: in vivo, mouse
E3-STn tumors = assay: E3-STn murine breast tumor allograft model, tumor volume; settings: for Average Tumor Volume (mm^3): 7G9-1A8 25 mg/kg i.p. twice weekly for 3 weeks, Paclitaxel daily for 5 days
Protocol: 3 test articles were evaluated during the study.
Standard deviation values are listed in parenthesis.

[1] = E3-STn allograft model, pathological evaluation of H&E stained organs; settings: 5 treated mice
Protocol: At the end of the study described in Example 22, three mice from the vehicle control group and five mice that received 7G9-1A8 were chosen at random for post-study pathology assessment. Brain, colon, intestine, heart, kidney, liver, lung, mandibular salivary gland, pancreas, spleen, stomach, adrenal gland and thyroid gland organs were collected from each mouse. The organs were fixed in formalin (VWR; Radnor, Pa.) for about 48 hours, transferred to 70% ethanol (Sigma-Aldrich; St.Louis, Mo.), and then processed for standard H&E staining.
The H&E stained tissue slides were examined for pathology review. Liver sections from each animal had multifocal inflammation with or without concomitant hepatocellular necrosis. The histo-pathological changes were minimal to mild in severity. There was no appreciable difference in the morphology of lesions among vehicle control group mice and mice that received 7G9-1A8.

[2] = E3-STn allograft model, average weight of mice
Protocol: Balb/c mice were used as part of the test system. 50 female mice were inoculated with E3-STn cells to cause STn-expressing tumor formation. Mice were maintained under pathogen-free conditions with irradiated feed and autoclaved water.
The average weight of mice in each treatment group was also determined on days 1, 4, 6, 8, 11, 13, 15, 18, 20, 22, 26, 27, 29, 32, 34, 36, 39 and 41 following the first administration of each test article (see the following Table). The percent gain or loss over initial weight values is listed in parentheses.

[3] = COLO-205 xenograft model, percent body weight change; settings: 5 mg/kg i.p. once weekly
Text: To evaluate antibody drug conjugates (ADCs) as single agents in an COLO-205 Colon AdenocarcinomaTumor Xonograft model, 40 athymic nude female mice age range 6-8 weeks were randomly separated into four separate groups, one vehicle control and three ADC treatments, then maintained individually with food/water ad libitum (see the following Table).
Animals were inoculated in the subcutaneous right flank with 5×10^6 colon adenocarcinoma tumor cells (COLO-205) in matrigel, mean tumor size was 175-225 mm^3 at study initiation. Animals were given either vehicle or one of the antibody drug conjugates (5 mg/kg) by intraperitoneal injection once weekly. Tumor volume and percent body weight change were determined once weekly until study termination. The study was terminated when the tumor in the vehicle control animal reached a mean tumor weight >1500 mm^3. SE refers to “standard error.”

[4] = MDA-MB-231-STn xenograft model, percent body weight change; settings: 5 mg/kg i.p. once weekly
Text: To evaluate antibody drug conjugates (ADCs) as single agents in an MDA-MB-231-STn Human Breast Tumor Xenograft model, 40 ICR SCID female mice age range 6-8 weeks were randomly separated into four separate groups, one vehicle control and three ADC treatments, then maintained individually with food/water ad libitum (see the following Table).
Animals were inoculated in the subcutaneous right flank with 5×10^6 breast tumor cells (MDA-MB-231-STn) in matrigel, mean tumor size was 175-225 mm^3 at study initiation. Animals were given either vehicle or antibody drug conjugates (5 mg/kg) by intraperitoneal injection once weekly. Tumor volume and percent body weight change were determined once weekly until study termination. The study was terminated when the tumor in the vehicle control animal reached a mean tumor weight ≥1500 mm^3. SE refers to “standard error.”

B1: 7G9: anti-STn mouse monoclonal, IgG2b κ, from mouse #4407; VH SEQ ID NO: 12, VL SEQ ID NO: 9 (antibody, V domains shown)
VH: QVQLKESGPGLVAPSQNLSITCTVSGFSLTSYGVNWVRQPPGKGLEWLGVIWGDGSTNYHSALISRLIISKENSKSQVFLKLNSLQTNDTATYYCTKGFVYWGQGTLVTVSA
VL: QIVLTQSPAIMSASPGEKVTMTCSASSSVSYMHWYQQKSGTSPKRWIFDTSKLASGVPARFSGSGSGTSYSLTISSMEAEDAATYYCQQWSSNLLTFGAGTKLELK
E3-STn tumors; 25 mg/kg i.p. twice weekly for 3 weeks
  average tumor volumes as compared to Paclitaxel and vehicle control: greatly reduced
E3-STn tumors; day 1
  Average Tumor Volume (mm^3): 112.4 mm^3
E3-STn tumors; day 4
  Average Tumor Volume (mm^3): 148.7 mm^3
E3-STn tumors; day 6
  Average Tumor Volume (mm^3): 161.9 mm^3
E3-STn tumors; day 8
  Average Tumor Volume (mm^3): 152.8 mm^3
E3-STn tumors; day 11
  Average Tumor Volume (mm^3): 136.3 mm^3
E3-STn tumors; day 13
  Average Tumor Volume (mm^3): 118.4 mm^3
E3-STn tumors; day 15
  Average Tumor Volume (mm^3): 105.1 mm^3
E3-STn tumors; day 18
  Average Tumor Volume (mm^3): 99.5 mm^3
E3-STn tumors; day 20
  Average Tumor Volume (mm^3): 91.7 mm^3
E3-STn tumors; day 22
  Average Tumor Volume (mm^3): 105.2 mm^3
E3-STn tumors; day 26
  Average Tumor Volume (mm^3): 102.8 mm^3
E3-STn tumors; day 27
  Average Tumor Volume (mm^3): 107.4 mm^3
E3-STn tumors; day 29
  Average Tumor Volume (mm^3): 147.1 mm^3
E3-STn tumors; day 32
  Average Tumor Volume (mm^3): 160.6 mm^3
E3-STn tumors; day 34
  Average Tumor Volume (mm^3): 164.7 mm^3
E3-STn tumors; day 36
  Average Tumor Volume (mm^3): 212.1 mm^3
E3-STn tumors; day 39
  Average Tumor Volume (mm^3): 206.6 mm^3
E3-STn tumors; day 41
  Average Tumor Volume (mm^3): 235.3 mm^3
[1]
  epicardial inflammation: not observed
  neutrophil aggregates in the muscularis mucosa of the stomach: not observed
[1]; 3 vehicle mice
  liver histopathology (multifocal inflammation, hepatocellular necrosis) vs vehicle control: no significant difference between the groups
[2]; day 1 of study
  Average Weight: 17.1 g
[2]; day 4 of study
  Average Weight: 17.3 g
  percent gain or loss over initial weight: (1.7) %
[2]; day 6 of study
  Average Weight: 18.2 g
  percent gain or loss over initial weight: (6.9) %
[2]; day 8 of study
  Average Weight: 18.2 g
  percent gain or loss over initial weight: (6.5) %
[2]; day 11 of study
  Average Weight: 18.3 g
  percent gain or loss over initial weight: (7.3) %
[2]; day 13 of study
  Average Weight: 18.6 g
  percent gain or loss over initial weight: (8.9) %
[2]; day 15 of study
  Average Weight: 18.7 g
  percent gain or loss over initial weight: (9.9) %
[2]; day 18 of study
  Average Weight: 18.6 g
  percent gain or loss over initial weight: (9.0) %
[2]; day 20 of study
  Average Weight: 18.9 g
  percent gain or loss over initial weight: (10.8) %
[2]; day 22 of study
  Average Weight: 18.9 g
  percent gain or loss over initial weight: (11.1) %
[2]; day 26 of study
  Average Weight: 19.0 g
  percent gain or loss over initial weight: (11.7) %
[2]; day 27 of study
  Average Weight: 19.1 g
  percent gain or loss over initial weight: (11.9) %
[2]; day 29 of study
  Average Weight: 19.4 g
  percent gain or loss over initial weight: (14.0) %
[2]; day 32 of study
  Average Weight: 19.2 g
  percent gain or loss over initial weight: (12.6) %
[2]; day 34 of study
  Average Weight: 19.5 g
  percent gain or loss over initial weight: (14.2) %
[2]; day 36 of study
  Average Weight: 19.6 g
  percent gain or loss over initial weight: (14.8) %
[2]; day 39 of study
  Average Weight: 20.2 g
  percent gain or loss over initial weight: (18.7) %
[2]; day 41 of study
  Average Weight: 20.3 g
  percent gain or loss over initial weight: (19.2) %
[2]; over the course of treatment
  percent gain in weight as compared to Paclitaxel and vehicle control: higher percent gain in weight

B2: S3F: 3F1 variable domains combined with IgG2a constant domains; heavy chain SEQ ID NO: 63, light chain SEQ ID NO: 64 (antibody)
heavy: QVQLQQSDAELVKPGASVKISCKASGYTFTDHAIHWVKQKPEQGLDWIGYISPGNGDIKYNEKFKDKVTLTADKSSSTACMHLNSLTSEDSAVYFCKRSLLALDYWGQGTTLTVSSAKTTAPSVYPLAPVCGDTTGSSVTLGCLVKGYFPEPVTLTWNSGSLSSGVHTFPAVLQSDLYTLSSSVTVTSSTWPSQSITCNVAHPASSTKVDKKIEPRGPTIKPCPPCKCPAPNLLGGPSVFIFPPKIKDVLMISLSPIVTCVVVDVSEDDPDVQISWFVNNVEVHTAQTQTHREDYNSTLRVVSALPIQHQDWMSGKEFKCKVNNKDLPAPIERTISKPKGSVRAPQVYVLPPPEEEMTKKQVTLTCMVTDFMPEDIYVEWTNNGKTELNYKNTEPVLDSDGSYFMYSKLRVEKKNWVERNSYSCSVVHEGLHNHHTTKSFSRTPGK
light: DIVMTQSHKFMSTSVGDRVSITCKASQDVGTNIAWYQQKPGRSPKVLIYSASTRHTGVPDRFTGSGSGTDFTLTISNVQSEDLTDYFCQQYSSFPLTFGVGTKLELKRADAAPTVSIFPPSSEQLTSGGASVVCFLNNFYPKDINVKWKIDGSERQNGVLNSWTDQDSKDSTYSMSSTLTLTKDEYERHNSYTCEATHKTSTSPIVKSFNRNEC
[3]
  body weight course after initial drop: remained low
[3]; study day 1
  Percent Body Weight Change: 0%
[3]; study day 5
  Percent Body Weight Change: 1.18%
[3]; study day 8
  Percent Body Weight Change: −5.01%
[3]; study day 10
  Percent Body Weight Change: −2.53%
[3]; study day 15
  Percent Body Weight Change: −5.22%
[3]; study day 19
  Percent Body Weight Change: −1.33%
[3]; study day 22
  Percent Body Weight Change: −0.91%
[4]
  body weight at study termination: overall increase in body weight
[4]; study day 1
  Percent Body Weight Change: 0%
[4]; study day 4
  Percent Body Weight Change: −0.01%
[4]; study day 8
  Percent Body Weight Change: −1.29%
[4]; study day 10
  Percent Body Weight Change: −1.36%
[4]; study day 15
  Percent Body Weight Change: −1.09%
[4]; study day 18
  Percent Body Weight Change: −0.51%
[4]; study day 23
  Percent Body Weight Change: 1.49%
[4]; study day 25
  Percent Body Weight Change: 2.17%
